First the molecules themselves.
B1: HDV Ribozyme (parent)
chain: GGCCGGCAUGGUCCCAGCCUCCUCGCUGGCGCCGGCUGGGCAACAUUCCGAGGGGACCGUCCCCUCGGUAAUGGCGAAUGGGACCCA

Variants of B1 are the subject of the series. The series can be described thus: self-cleavage, relative activity (ratio to wild type); higher = more cleavage; co-transcriptional.
Turning to GGCCGGCAUGGUCCCAGCCUCCUCGCUGGCGCCGGCUGGGCAACAUUCCGAGGGGACCGUCCCCUCGGUUAUGGCGACUGGGACCCA [A70U A78C], the self-cleavage was determined as 0.0941.
In the case of GGCCGGCAUGGUCCCAGCCUCCUCGCUGGCGCCGGCUGGGCAAUAUUCCGAGGCGACCGUCCCCUCGGUAAUGGCGAAUGGGACCCA [C44U G54C] it was 0.694.
For GGCAGGCAUGGUCCCAGCCUCCUCGCUGGCGCCGGCUGGGCAACAUUCCGAGGGGACCGUCCCCACGGUAAUGGCGAAUGGGACCCA [C4A U65A] the value was 0.594; for GGCCGGCAUGGUCCCAGCCUCCACGCUGGCGCCGGCUGGGCAACAUUCCGAGGCGACCGUCCCCUCGGUAAUGGCGAAUGGGACCCA [U23A G54C], 1.15; for GGACGGCAUGGUCCCAGCCUCCUCGCUGGCGCCGGCUGGGCAACAUUCCUAGGGGACCGUCCCCUCGGUAAUGGCGAAUGGGACCCA [C3A G50U], 0.754.
GGCCGGCAUGGCCCCAGCCUCCUCGCUGGCGCCGGCUGGGCAACAUUCCGAGGGGUCCGUCCCCUCGGUAAUGGCGAAUGGGACCCA [U12C A56U]: the self-cleavage was 0.499.
For GGCCGGCAUGGUCCCAGCCUCCUCGCUGACGCCGGCUGGGCAACAUUCCGAGGGGACCGUCCCCUCGGUAAUGGCGAAUGGAACCCA [G29A G82A] the value was 0.109; for GGACGGCAUGGUCCCAGCCUCCUCGCUGGCGCCGGCUGGGCAACAUUCCGAGGGGACCGUCCCCUCGGUCAUGGCGAAUGGGACCCA [C3A A70C], 0.501; for GGCCGGCAUGGUCCCAGCCUCCUCGCUGGCGCCGGCUGUGCAACAUUCCGAGGGGACCGUCCCCUCGGCAAUGGCGAAUGGGACCCA [G39U U69C], 0.769.
In the case of GGCCGGCAUGGUCCCAGCCUCCUCGCUGGCGCCGGCUGGGCAACAUUCCGAGGGGACCGUCCCCUCGGAAAUGGCGCAUGGGACCCA [U69A A77C] it was 0.199; in that of GGCCGGCAUGGUCCCAGCCUCCUCGCUAGCGCCGGCUGGGCAACAUUCCGAGGGGACCGUCCCCUCGGUAAUGGCGAAAGGGACCCA [G28A U79A], 0; in that of GGCCGGCAUGGUCCCAGCCUCCUCGCUGGCGCCGGCUGGGCAACACUCCGAGGGGACCGUCCCCUCAGUAAUGGCGAAUGGGACCCA [U46C G67A], 0.671.
In the case of GGCCGGCAUGGUCCCAGCCUCCUCGCUGGCGCCGCCUGGGCAACAUUCCGAGGGGACCGUCCCCUCGGUAAUGUCGAAUGGGACCCA [G35C G74U] it was 0.133; in that of GGCCGGCAUGGUCCCAGCCUCCUCGCUGGCGCCGGCUGGGGAACAUUCCGAGGGGACCGUCCCCUCGGUAAUGGCGAAUGGAACCCA [C41G G82A], 0.0811; in that of GGCCGGCAUGGUCCCAGUCUCCUCGCUGGCGCCGGCUGGGAAACAUUCCGAGGGGACCGUCCCCUCGGUAAUGGCGAAUGGGACCCA [C18U C41A], 0.597.
In the case of GGCGGGCAUGGUCCCAGCCUCCUCGCUGGCGCCAGCUGGGCAACAUUCCGAGGGGACCGUCCCCUCGGUAAUGGCGAAUGGGACCCA [C4G G34A], the self-cleavage came out at 0.161.
In the case of GGCCGGCAUGGUCCCAGCCUACUCGCUGGCGCUGGCUGGGCAACAUUCCGAGGGGACCGUCCCCUCGGUAAUGGCGAAUGGGACCCA [C21A C33U] it was 0.0723.
For GGCCGGCAUGGUCCCAGCCUCCUCGCUGGCGCCGGCUGGGCAACAUUCCGAGGGGACCGUCCCCUCAGUAAUGGCGAGUGGGACCCA [G67A A78G] the value was 0.604.
In the case of GGCCUGCAUGGGCCCAGCCUCCUCGCUGGCGCCGGCUGGGCAACAUUCCGAGGGGACCGUCCCCUCGGUAAUGGCGAAUGGGACCCA [G5U U12G] it was 0.356.
With GGCCGGCAUGGUCCCAGCCUCCUCGCUGGCGCCGGCUGGGCAACAUUCCGAGGGGACCGUCCCCGCGGUAAGGGCGAAUGGGACCCA [U65G U72G], the self-cleavage was found to be 0.748.
For GGCCGGCAUGGUCCCAGCCUCCUCGCUGGCGCCGGCUCGGGAACAUUCCGAGGGGACCGUCCCCUCGGUAAUGGCGAAUGGGACCCA [G38C C41G] the value was 0.406; for GGCCGGCAUGGUCCCAGCCACCUCGCUGGCGCCGGCUGGGCAACAUUCCGAGGGGACCGUCCCCUCGGUAAUGGCGAAUGGAACCCA [U20A G82A], 0.0739; for GGCCGGCAUGGUCACAGCCUCCUCGCUGGCGCCGGCUGGGCAACAUUCCGAGGGGACCGUCCCCUCGGUAAUGGCGUAUGGGACCCA [C14A A77U], 0.237.
As to GGCCGGCAUGGUCCCAGCCUCCUCGCUGGCGCCGGCUGGGCAUCAUUACGAGGGGACCGUCCCCUCGGUAAUGGCGAAUGGGACCCA [A43U C48A], the self-cleavage came out at 0.424.
In the case of GGCCGGCAUGGUCCCAGCCUCCUCGCUGGCGCCGGCUGGGCAACAUUCCCAGGGGACCGUCCCCUCGCUAAUGGCGAAUGGGACCCA [G50C G68C] it was 0.249.
For GGCCGGCAUGGUGCCAGCCUCCUCGCUGGCGCCGGCUGGGCAACAUUCCGAGGGGACCGUCCCCUCGGUAAUGGCGACUGGGACCCA [C13G A78C] the value was 0.0811.
For GGCCGGCAUGGUCCCAGCCUCCGCGCUGGCGCUGGCUGGGCAACAUUCCGAGGGGACCGUCCCCUCGGUAAUGGCGAAUGGGACCCA [U23G C33U] the value was 0.569.
GGCCGGCAUGGUCCCAGCCUCCUCGCUGGCGCCGGCUAGGCAACAUUCCGAGGGGACCGUCCCCUCGGUAAUGGCGAAUGGCACCCA [G38A G82C]: the self-cleavage was determined as 0.262.
Turning to GGCCGGCAUGGUCCCAGCCUCCUCGCUGGCGCCGGUUGGGCAACAUUGCGAGGGGACCGUCCCCUCGGUAAUGGCGAAUGGGACCCA [C36U C48G], the self-cleavage was 0.831.
For GGCCGGCAUGGUCCCAGCCUCCUCGCUGGCGCCGGCUGGGCAACAUUCCGAGGGGAGCGUCCCAUCGGUAAUGGCGAAUGGGACCCA [C57G C64A] the value was 1.04.
On to GGCCGGCAUGGUCCCAGCCUCCUCGCUGGCGCCGGCUGGGCAACAUUCCGAGGGGACCGUCCCCUCGGUAAUGGCGAAUGGGACACG [C85A A87G], for which the self-cleavage is 0.875.
In the case of GGCCGGCAUGGUCCCAGCCUCCUCGCUGGCGCCGGCUGGGCAACAUCCCGAGGGGACCGUCCCCUCGGUAAUGGCGAAUUGGACCCA [U47C G80U] it was 0.29.

(Values after the RNAGym collection of RNA variant scans (doi:10.7554/elife.80360).)
